PMC6037669, “Optimization of a MT1-MMP-targeting Peptide and Its Application in Near-infrared Fluorescence Tumor Imaging” (Scientific Reports, 2018)

B1: MT1-AF7p (peptide)
peptide: HWKHLHNTKTFL
notes: In the AFM experiments coupled covalently to the tip through an NHS-PEG18-aldehyde linker; In the in vivo imaging Cy5.5 was conjugated to the N-terminus; also called original peptide; original ligand; source: synthetic peptide (solid-phase, Fmoc chemistry, HPLC purified)
B2: MT1-AF7p-H4K (peptide)
peptide: HWKKLHNTKTFL
notes: MT1-AF7p with histidine 4 changed to lysine (rational design by docking); In the AFM experiments coupled covalently to the tip through an NHS-PEG18-aldehyde linker; also called optimized peptide; peptidomimetic; source: synthetic peptide, bought: GL Biochem Ltd. (Shanghai)
B3: MT1-AF7p-H4R (peptide)
peptide: HWKRLHNTKTFL
notes: MT1-AF7p with histidine 4 changed to arginine (rational design by docking); In the AFM experiments coupled covalently to the tip through an NHS-PEG18-aldehyde linker; also called optimized peptide; peptidomimetic; source: synthetic peptide, bought: GL Biochem Ltd. (Shanghai)

How the values were obtained:
Conditions in all cases: both partners purified
[1] = biological target: T1, MT1-160p (human); test: atomic force microscopy (single-molecule recognition force spectroscopy); peptide covalently on the AFM tip through NHS-PEG18-aldehyde; MT1-160p immobilised on APTES-treated mica; PBS
T1 construct: peptide of MT1-MMP (MMP14) that holds the MT-Loop (Tyr164-Gln174); source: synthetic peptide, bought: GL Biochem Ltd. (Shanghai)
T1 peptide: REVPYAYIREGHEKQ

[2] = biological target: T2, recombinant human MT1-MMP catalytic domain (human, UniProt P50281 114-287); test: ITC; MicroCal ITC-200, 25 °C, 10 mM HEPES, 150 mM NaCl, pH 7.4; results and legend: peptides injected into MT1-MMP; methods: MT1-160p (1 mM) in the syringe into binding peptides (0.1 mM) in the cell; one-site binding model
T2 construct: MT1-MMP (MMP14), human, catalytic domain (20 kDa); PDB 1BQQ chain M is the catalytic domain structure used for the docking, not necessarily the same limits; also called Membrane type 1 metalloproteinase; MMP14

[3] = biological target: T2, recombinant human MT1-MMP catalytic …; test: atomic force microscopy (single-molecule recognition force spectroscopy); peptide covalently on the AFM tip through NHS-PEG18-aldehyde; MT1-MMP immobilised on APTES-treated mica; PBS; 25 °C; control with free excess peptide (1 mmol/L)

| Binder | binding result [1] | Ka [2] [M⁻¹] | retraction force (peak position of the histogram) [3] [pN] | dH [2] [kcal/mol] | stoichiometry N [2] |
| --- | --- | --- | --- | --- | --- |
| B1 | binds | 107000 | 150 |  |  |
| B2 | binds |  | 166 |  |  |
| B3 | binds | 175000 | 260 | -0.29 | 1.14 |
